Results from patent US20160256527A1 (ONCOMED PHARMACEUTICALS, published 2016).

Target: T1, membrane bound single chain human GITRL trimer (human, UniProt Q9UNG2 29-177)
T1 construct: Expressed on the surface of transiently transfected HEK-293 cells (co-transfected with GFP); also called single chain hGITRL trimer
T1 sequence: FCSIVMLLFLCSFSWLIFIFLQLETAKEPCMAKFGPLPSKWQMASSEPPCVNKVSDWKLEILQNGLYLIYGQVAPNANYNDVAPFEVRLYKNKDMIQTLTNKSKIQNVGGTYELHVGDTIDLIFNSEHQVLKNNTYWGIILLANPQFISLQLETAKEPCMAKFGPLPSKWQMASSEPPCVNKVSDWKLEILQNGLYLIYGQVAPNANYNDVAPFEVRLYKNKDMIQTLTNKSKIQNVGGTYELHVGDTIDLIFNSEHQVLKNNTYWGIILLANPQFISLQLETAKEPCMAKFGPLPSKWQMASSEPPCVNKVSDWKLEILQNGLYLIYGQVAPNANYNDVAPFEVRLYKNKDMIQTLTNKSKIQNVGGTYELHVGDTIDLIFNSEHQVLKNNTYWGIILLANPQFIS
Assay: flow cytometry, HEK-293 cells transfected with membrane bound single chain hGITRL trimer, PE anti-human Fc
Description: FIG. 2. FACS analysis of a membrane bound single chain GITRL trimer and soluble GITR. HEK293 cells were transiently transfected with an expression vector encoding a membrane bound single chain human GITRL trimer and a second expression vector encoding green fluorescent protein (GFP). Transfected cells were incubated with soluble human GITR-Fc fusion protein and analyzed by flow cytometry. Positive binding is determined by observation of cells within the inset box of the FACS plot.
To test the ability of a single chain hGITRL trimer to bind human GITR, binding studies were conducted. Human HEK-293 cells were transiently co-transfected with expression vectors encoding (1) the membrane bound single chain hGITRL trimer construct described above and (2) green fluorescent protein (GFP) as a transfection marker. Twenty-four hours post-transfection, the cells were incubated with hGITR-Fc or a control fusion protein. The cells were stained with a PE-conjugated anti-human Fc secondary antibody and analyzed by flow cytometry.

B1: soluble human GITR-Fc fusion protein (Fc fusion, UniProt Q9Y5U5 26-162, looked up)
chain: QRPTGGPGCGPGRLLLGTGTDARCCRVHTTRCCRDYPGEECCSEWDCMCVQPEFHCGDPCCTTCRHHPCPPGQGVQSQGKFSFGFQCIDCASGTFSGGHEGHCKPWTDCTQFGFLTVFPGNKTHNAVCVPGSPPAEP
notes: also called hGITR-Fc; not shown: Fc region
- binding result: binds
